Experimental data: paper PMC12400496 (Bioscience Reports, 2025)

Assays:
CtcP = molecular target: T1, CtcP (Kitasatospora aureofaciens, UniProt A0A1E7MYN1); assay: X-ray crystal structure (FAD soak); type: binding; conditions: chloride ion bound near isoalloxazine ring; soaked with 1 mM FAD, 20 mM NaCl, pH 7.5, 16 h
T1 construct: full length, 555 residues; N-terminal His10 tag cut by PreScission protease; expressed in E. coli BL21(DE3); homodimer; primers encode N-terminus MTDTTAD and C-terminus AMRVKP
T1 sequence (A0A1E7MYN1 whole entry): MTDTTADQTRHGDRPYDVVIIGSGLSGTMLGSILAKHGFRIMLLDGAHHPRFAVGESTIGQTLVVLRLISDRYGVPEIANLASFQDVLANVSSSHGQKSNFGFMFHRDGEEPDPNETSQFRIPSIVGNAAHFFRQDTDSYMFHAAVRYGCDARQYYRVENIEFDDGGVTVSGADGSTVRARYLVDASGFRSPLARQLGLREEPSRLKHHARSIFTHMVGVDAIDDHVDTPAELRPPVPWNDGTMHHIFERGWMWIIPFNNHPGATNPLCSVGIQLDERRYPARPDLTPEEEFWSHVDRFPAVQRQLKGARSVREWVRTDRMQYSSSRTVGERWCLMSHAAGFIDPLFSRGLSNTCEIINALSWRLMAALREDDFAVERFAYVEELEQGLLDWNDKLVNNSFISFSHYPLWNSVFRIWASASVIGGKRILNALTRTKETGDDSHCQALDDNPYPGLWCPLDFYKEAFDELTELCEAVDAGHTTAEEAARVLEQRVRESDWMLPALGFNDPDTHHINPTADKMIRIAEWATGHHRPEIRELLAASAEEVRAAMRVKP

CtcQ [1] = molecular target: T2, CtcQ (Kitasatospora aureofaciens, UniProt S4S3E3); assay: X-ray crystal structure (co-crystal); type: binding; conditions: co-crystallised with 5 mM NAD and 5 mM FAD, pH 7.5
T2 construct: full length; crystal: N-terminal His10 tag cut by PreScission protease; reductase assay: C-terminal His6 tag kept; homodimer; primers encode N-terminus MPPEPLS and C-terminus TLAAEG

CtcQ [2] = molecular target: T2, CtcQ; assay: NADH oxidation, absorbance at […] nm; type: biochemical; conditions: 0.1 mM FMN, 1 mM NADH, 1.7 uM CtcQ (C-terminal His6), 20 mM HEPES pH 7.5
[3] = molecular target: CtcP (1-516), C-terminal truncation mutant lacking the helical hairpin (residues 1-516, P516G) (Kitasatospora aureofaciens); assay: SEC; S-200 column in 40 mM Tris pH 8.0, 100 mM NaCl, 2 mM BME; position of monomeric PltM as marker
[4] = molecular target: halogenase CtcP from Kitasatospora aureofaciens, full-length (Kitasatospora aureofaciens); assay: as above
[5] = molecular target: halogenase CtcP from Kitasatospora aureofaciens, full-length (Kitasatospora aureofaciens); assay: crystal structure; CtcP in complex with PEG and sulfate; hanging drops, 100 mM HEPES pH 7.0, 1.6 M ammonium sulfate, 2% PEG 400, 21 °C
[6] = molecular target: halogenase CtcP from Kitasatospora aureofaciens, full-length (Kitasatospora aureofaciens); assay: crystal structure; CtcP in complex with FAD and Cl-; crystals from 0.1 M HEPES pH 7.5, 26% PEG 4000, 0.2 M Li2SO4, 21 °C, soaked with 1 mM FAD for 16 h
[7] = molecular target: the molecule itself; assay: crystal structure; CtcQ in complex with FAD and NAD; hanging drops, 0.1 M Tris pH 7.5, 0.6 M KH2PO4, 0.6 M NaH2PO4, 21 °C, 5 mM NAD and 5 mM FAD

Q: `Cc1cc2nc3c(=O)[nH]c(=O)nc-3n(C[C@H](O)[C@H](O)[C@H](O)COP(=O)(O)OP(=O)(O)OC[C@H]3O[C@@H](n4cnc5c(N)ncnc54)[C@H](O)[C@@H]3O)c2cc1C` [FAD] was tested. Which “X-ray crystal structure (FAD soak)” value (CtcP) did it give?
A: We obtained crystals of the CtcP-FAD complex by soaking FAD into the CtcP crystals

Q: What about the “X-ray crystal structure (co-crystal)” value (CtcQ [1]; flavin subsite, second FAD also in the NAD subsite of most active sites) of the same molecule?
A: determined the crystal structure of CtcQ in complex with FAD and NAD

Q: `Cc1cc2nc3c(=O)[nH]c(=O)nc-3n(C[C@H](O)[C@H](O)[C@H](O)COP(=O)(O)O)c2cc1C` [FMN] was tested. Which “NADH oxidation, absorbance at 340 nm” value (CtcQ [2]) did it give?
A: CtcQ, which was highly active with either FAD or FMN as a substrate

Q: For `NC(=O)c1ccc[n+]([C@@H]2O[C@H](COP(=O)(O)OP(=O)(O)OC[C@H]3O[C@@H](n4cnc5c(N)ncnc54)[C@H](O)[C@@H]3O)[C@@H](O)[C@H]2O)c1` [NAD], which “X-ray crystal structure (co-crystal)” value (CtcQ [1]; U-shaped, stacked on FAD, text also calls the bound molecule NADH) is on record?
A: determined the crystal structure of CtcQ in complex with FAD and NAD

Q: “CtcP (1-516), C-terminal truncation mutant lacking the helical hairpin (residues 1-516, P516G) (domain or fragment)” was tested. Which stoichiometry N [3] did it give?
A: 2

Q: For “halogenase CtcP from Kitasatospora aureofaciens, full-length (enzyme)”, which stoichiometry N [4] is on record?
A: 2

Q: And the stoichiometry N [5]?
A: 2

Q: What about the stoichiometry N [6] of the same molecule?
A: 2

B1: FAD reductase CtcQ from Kitasatospora aureofaciens (N-terminal tag removed) (enzyme, UniProt S4S3E3 1-191, looked up)
chain: MPPEPLSLPLDLAPGLVDGDTFLSIMGALPTGVTVVTTLGPDGEPYGLTCSAACSVSKAPPLLLVCINRDSRVLKALLERGEFAVNVLRGGGESTSARFAAPVDDRFRDVRWEPGSAGGVPVMSADVVAHAECRVAAALDAGDHTIVIGAVVAGGPRPEVPSPLMYWRRSYARWPVEEDPRTAALTLAAEG
notes: a second construct with a C-terminal His6 tag (pET22b) was used only for the reductase activity assay; also called flavin reductase CtcQ; source: E. coli BL21(DE3), purified (Ni2+-chelating chromatography, tag cleavage, S-200 size exclusion); not shown: His10, N-terminal, cleaved
Q: With B1 as the molecule, how does the “stoichiometry N” value [7] read?
A: 2
